Assay results taken from article PMC11286772, “Structural basis of antagonist selectivity in endothelin receptors” (Cell Discovery, 2024).
Positions count from the first letter of the chain named.

Key:
ETA WT = biological target: T1, ETA WT (Homo sapiens, UniProt P25101); test: Calcium mobilization assay, antagonist mode (ET-1 stimulated), CHO-K1 cells; type: cell-based
T1 construct: expressed in transfected cells; host or cells: CHO-K1
T1 sequence (P25101 21-427): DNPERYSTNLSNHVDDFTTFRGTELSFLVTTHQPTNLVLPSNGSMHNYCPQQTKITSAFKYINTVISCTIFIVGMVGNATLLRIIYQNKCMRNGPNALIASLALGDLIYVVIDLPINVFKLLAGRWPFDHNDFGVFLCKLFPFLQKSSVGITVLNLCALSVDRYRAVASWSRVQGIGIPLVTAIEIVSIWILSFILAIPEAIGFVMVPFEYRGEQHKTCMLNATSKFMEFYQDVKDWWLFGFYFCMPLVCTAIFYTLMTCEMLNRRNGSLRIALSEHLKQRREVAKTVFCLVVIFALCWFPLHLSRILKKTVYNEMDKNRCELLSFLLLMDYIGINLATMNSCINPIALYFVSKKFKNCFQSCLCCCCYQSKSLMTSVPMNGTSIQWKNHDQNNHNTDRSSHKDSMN
Protocol: CHO-K1 cells were cultured in Ham’s F-12K (Kaighn’s) Medium (Gibco-Thermo Fisher Scientific) supplemented with 10% (v/v) fetal bovine serum (FBS; Gibco-Thermo Fisher Scientific), and 100 U/mL Penicillin-Streptomycin (Gibco-Thermo Fisher Scientific) in a humidified incubator at 37 °C with 5% CO2. Cells were seeded in 6-cm dishes overnight; when the density reached 60%–80%, the cells were transferred to F12K Medium supplemented with 10% FBS and transfected with 1.5 μg DNA encoding the ETA WT or mutants or 3 μg DNA encoding the ETB WT or mutants using TransIT2020 (Mirus Biosciences). The next day, transfected cells were harvested from the plate using Versene buffer (Gibco-Thermo Fisher Scientific) and seeded into black-sided, clear-bottomed 384-well plates (Agilent) at a density of 1,5000 cells per well. After 20 h, the 1% dFBS medium was removed, and cells were loaded with 20 μL/well of 1× Calcium 6 dye (Molecular Devices) and incubated at 37 °C for 1 h in the dark. […] All data were analyzed using GraphPad Prism 8 and the data are from at least three independent replicate experiments. All plots are shown as means ± SEM. Data were determined using one-way ANOVA followed by Dunnett’s multiple test compared with WT. The top value was normalized to 100% and the bottom value was normalized to 0% for the final presentation. […]

ETA G233^ECL2A = biological target: T2, ETA G233^ECL2A (Homo sapiens, UniProt P25101, G233A); test: Size exclusion chromatography analysis of Fab301 binding; settings: ETA G233^ECL2A mutant vs WT
T2 construct: expressed in transfected cells; host or cells: CHO-K1
T2 sequence (P25101 21-427 G233A): T1 sequence (P25101 21-427) with G213A
Source text: (§1) To pinpoint the exact ECL2 residues involved in binding, we performed an extensive alanine scanning mutagenesis. Our size exclusion chromatography analysis identified that the region spanning residues 230^ECL2–235^ECL2 in ETA, and in particularly, residues R232^ECL2 and G233^ECL2, are crucial for Fab301 binding. […] Moreover, the hydrophobic interactions at this interface are crucial for antibody binding, as confirmed by our calcium mobilization assay on Fab301 (Supplementary Fig. S9b). Within this model, E230^ECL2 establishes hydrogen bonds with the CDRL1 and CDRL2 regions of Fab301, whereas Y231^ECL2 and E234^ECL2, together with R232^ECL2, participate in a complex hydrogen bond network within the CDRH3 region of Fab301 (Fig. 6c).

ETA R232^ECL2A = biological target: T3, ETA R232^ECL2A (Homo sapiens, UniProt P25101, R232A); test: as above; settings: ETA R232^ECL2A mutant vs WT
T3 construct: expressed in transfected cells; host or cells: CHO-K1
T3 sequence (P25101 21-427 R232A): T1 sequence (P25101 21-427) with R212A
Source text: as §1

B1: Fab301: ETA-specific antibody Fab fragment produced from Getagozumab (antibody, V domains shown)
VH: QVTLKESGPTLVKPTQTLTLTCTFSGFSLTTSGLGVAWIRQPPGKALEWLAHIWSDGDTRYYPALKNRLTITKDTSKNQVVLTMTNMDPVDTATYYCAHMKDDSLYFDNWGQGTLVTVSS
VL: EIVLTQSPDFQSVTPKEKVTITCRASQNIGTSIHWYQQKPDQYPKLLIKYASKSISGVPSRFSGSGSGTDFTLTINSLEAEDAATYYCQHSYSFPWTFGQGTKVEIK
ETA WT
  Effect on ET-1-induced ETA signaling: antagonistic effects
ETA G233^ECL2A
  Fab301's binding to ETA: near-complete loss
ETA R232^ECL2A
  Fab301's binding to ETA: near-complete loss
